Measured values published in publication PMC6960015 (Nature cell biology, 2019).

Target: Rabbit skeletal muscle LatB-actin (rabbit, UniProt P68135 1-377)
Experiment: BLI

B1: GST-ArhGAP12 ΔNΔP (568-791) (domain or fragment)
chain: QKKTKKNLKKFLTRRPTLQAVREKGYIKDQVFGSNLANLCQRENGTVPKFVKLCIEHVEEHGLDVDGIYRVSGNLAVIQKLRFAVNHDEKLDLNDSKWEDIHVITGALKMFFRELPEPLFTFNHFNDFVNAIKQEPRQRVTAVKDLIRQLPKPNQDTMQILFRHLKRVIENGEKNRMTYQSIAIVFGPTLLKPERETGNIAVHTVYQNQIVELILLELSTVFGR
B1 showed a Kd of 40.3 nM.
